Assay results published in the supplement of paper PMC9732359.
± gives the uncertainty stated by the source.

Assay: protein stability index of a GFP-peptide fusion (yeast GPS) (PSI 1-4); higher = more stable; sorted into four equal gates, so the index is relative within each strain
Procedure, shortened: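 Plasmids isolated from each sorting gate were PCR-amplified and Illumina-sequenced, and barcodes assigned the reads to strains. The gates, four of equal size, were set by GFP/Cherry fluorescence ratio on mid-log cultures in leucine-free medium. These cultures were yeast carrying a pooled library of tiled 17-residue yeast protein peptides fused downstream of GFP on a plasmid that also expresses Cherry. The protein stability index is the sum of every gate's read frequency times its gate number.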

| Sequence | protein stability index (doa10∆) | protein stability index (pdr5∆) | protein stability index (san1∆) | protein stability index (ubr1∆) |
| --- | --- | --- | --- | --- |
| SKSTSMKLSMPPEVTSS [POP1] | 2.4 ± 0.053 | 2.59 ± 0.062 | 2.44 ± 0.057 | 2.54 ± 0.035 |
| LNTLNNVVEIWVFSYLR [SIR3] | 1.56 ± 0.043 | 1.6 ± 0.063 | 1.42 ± 0.11 | 1.58 ± 0.053 |
| KASTYGELVLDIEVPDV [SNF12] | 2.61 ± 0.058 | 2.28 ± 0.051 | 2.13 ± 0.075 | 1.87 ± 0.045 |
| IEKTESVDKKVDSGEER [SWI3] | 3.26 ± 0.098 | 3.3 ± 0.14 | 3.36 ± 0.055 | 3.46 ± 0.066 |
| NNAHSSDLGTVVFDSNE [YMR153W/NUP53] | 2.56 ± 0.16 | 2.46 ± 0.093 | 2.24 ± 0.1 | 1.85 ± 0.082 |
| NTENVESVPTPANAEPQ [ITC1] | 3.11 ± 0.087 | 3 ± 0.086 | 2.96 ± 0.1 | 3.22 ± 0.12 |
| YEYGAVSVLLISKDCSA [BRR2] | 2.12 ± 0.047 | 1.97 ± 0.043 | 1.91 ± 0.081 | 1.81 ± 0.041 |
| GIKVSLLGIFDDIFIPQ [RPC25] | 1.78 ± 0.077 | 1.73 ± 0.092 | 2 ± 0.18 | 1.77 ± 0.081 |
| EGLIRLDNLTEDPNSAA [DIS3] | 3.23 ± 0.066 | 3.31 ± 0.061 | 3.229 ± 0.032 | 3.185 ± 0.031 |
| LPAAVSKSLQESGDTQE [RPC82] | 2.37 ± 0.096 | 2.74 ± 0.11 | 2.97 ± 0.059 | 2.83 ± 0.093 |
| EGYQNDINTIKLQLSFV [SRP72] | 3.12 ± 0.21 | 2.73 ± 0.088 | 2.1 ± 0.26 | 3.07 ± 0.14 |
| EHKPVSPDKIGTFTADY [SSN2] | 2.98 ± 0.071 | 3.15 ± 0.051 | 2.9 ± 0.058 | 3.09 ± 0.048 |
| CFICLLHLANEHGLQIT [BRN1] | 2.54 ± 0.12 | 2.81 ± 0.17 | 2.61 ± 0.17 | 2.87 ± 0.087 |
| DLENKFNRLKKQAHEKL [YIL149C/MLP2] | 2.75 ± 0.11 | 2.71 ± 0.067 | 2.3 ± 0.17 | 2.81 ± 0.063 |
| VDNVWADVYAKALEGKD [RPP1B] | 3.14 ± 0.1 | 3.1 ± 0.16 | 3.35 ± 0.12 | 3.06 ± 0.11 |
| NVTQNEQQWITRAQYLA [SRP68] | 1.42 ± 0.08 | 1.54 ± 0.072 | 1.19 ± 0.13 | 1.28 ± 0.064 |
| SLISTRNDSTVNDSVIS [BRN1] | 2.6 ± 0.081 | 2.81 ± 0.077 | 2.72 ± 0.06 | 2.67 ± 0.059 |
| FPNGFKNFENGPKKNVF [RPC34] | 3.26 ± 0.083 | 3.27 ± 0.082 | 3.21 ± 0.062 | 3.44 ± 0.045 |
| SPMLYKVPDISSDGQLK [BRR2] | 2.52 ± 0.047 | 2.56 ± 0.045 | 2.61 ± 0.054 | 2.58 ± 0.03 |
| FRPIEIFTDFLPSSNGS [RRP42] | 2.19 ± 0.065 | 3.07 ± 0.08 | 3.09 ± 0.056 | 2.87 ± 0.063 |
| EPIKVNVRVGQAVETVG [RPN1] | 1.41 ± 0.16 | 2.26 ± 0.11 | 2.47 ± 0.11 | 2.44 ± 0.15 |
| STSFSFNAPATGNGTTT [YOR098C/NUP1] | 2.73 ± 0.042 | 2.97 ± 0.037 | 3.03 ± 0.033 | 3.005 ± 0.028 |
| IRTILVNIHHLLNEYRP [MED7] | 2.21 ± 0.064 | 2 ± 0.065 | 1.65 ± 0.12 | 1.58 ± 0.053 |
| KKIFGTGKRLAKKVARR [RPS24A] | 3.52 ± 0.064 | 3.34 ± 0.057 | 3.31 ± 0.039 | 3.42 ± 0.039 |
| IGHLIKTRFKGSQFIVV [SMC2] | 3.5 ± 0.12 | 3.05 ± 0.084 | 3.38 ± 0.087 | 3.14 ± 0.08 |
| QEGLAKFGACVAQGIMN [RPN2] | 1.79 ± 0.058 | 1.75 ± 0.042 | 1.88 ± 0.14 | 1.58 ± 0.051 |
| LEIDNKDSVTECSKDMK [SIR4] | 3.46 ± 0.14 | 3.53 ± 0.083 | 3.4 ± 0.12 | 3.63 ± 0.066 |
| IREINYTMSNHGMSVDP [RPO31] | 2.87 ± 0.16 | 3.03 ± 0.2 | 3.03 ± 0.11 | 3.06 ± 0.13 |

| Sequence | protein stability index (doa10∆) | protein stability index (pdr5∆) | protein stability index (san1∆) | protein stability index (ubr1∆) |
| --- | --- | --- | --- | --- |
| VDSRATAGNWVASQTVK [PRE2] | 3.17 ± 0.12 | 3.4 ± 0.079 | 3.13 ± 0.078 | 3.26 ± 0.066 |
| DLAMANSLRRVMIAEIP [RPB3] | 1.23 ± 0.061 | 1.36 ± 0.051 | 1.09 ± 0.18 | 1.44 ± 0.068 |
| IDRGLFRSLFFRSYMDQ [RPB2] | 3 ± 0.27 | 2.88 ± 0.27 | 1.86 ± 0.25 | 2.94 ± 0.084 |
| VKPISIEAPQFYRYWSA [SWI3] | 2.23 ± 0.036 | 2.09 ± 0.036 | 1.85 ± 0.055 | 2.02 ± 0.032 |
| ILYGLVDKGAIMKNKDF [YJL039C/NUP192] | – | 2.32 ± 0.2 | 3.06 ± 0.21 | 1.58 ± 0.15 |
| KPKMLPIPSKPTLFDLA [SRP68] | 2.48 ± 0.071 | 2.54 ± 0.072 | 2.31 ± 0.099 | 2.53 ± 0.06 |
| ELKYQRSLRATAEERVG [RPL15A] | 1.27 ± 0.083 | 1.48 ± 0.11 | 1.67 ± 0.19 | 1.09 ± 0.054 |
| VVDANGCVNSLISGPRN [YMR129W/POM152] | 2.86 ± 0.15 | 2.69 ± 0.12 | 2.97 ± 0.13 | 2.66 ± 0.081 |
| QIKEIKEVIELPVKHPE [RPT6] | 2.98 ± 0.074 | 3.13 ± 0.088 | 3.27 ± 0.078 | 3.2 ± 0.075 |
| SVTIISAGNDKMVKAWN [ASC1] | 2.35 ± 0.22 | – | – | – |
| HNKLNITSDALEGITTT [SMC3] | 3.19 ± 0.16 | 3.09 ± 0.15 | 3.03 ± 0.092 | 3.1 ± 0.092 |
| DLGITEKNDQNNDDDDN [MCD1] | – | 2.97 ± 0.14 | – | 3.41 ± 0.24 |
| EDKQNIEINEDNSQDDQ [RRI2] | 3.44 ± 0.073 | 3.25 ± 0.066 | 3.23 ± 0.039 | 3.23 ± 0.04 |
| SHTGLIRKYGLNICRQC [RPS29A] | 1.51 ± 0.047 | 1.58 ± 0.05 | 1.51 ± 0.093 | 1.89 ± 0.053 |
| DNIDYAPMRLATAALEI [YJL039C/NUP192] | 2.35 ± 0.058 | 2.44 ± 0.041 | 2.29 ± 0.077 | 2.31 ± 0.042 |
| IDEIAYLFHNDRIIHTW [ECM29] | 1.4 ± 0.049 | 1.43 ± 0.054 | 1.3 ± 0.081 | 1.66 ± 0.043 |
| NDSSATRSWRPPQAGDR [RPB8] | 3.06 ± 0.26 | – | – | 2.76 ± 0.26 |
| NTMSAWVNMLLISSSGP [FAS2] | 1.99 ± 0.07 | 1.32 ± 0.051 | 1.37 ± 0.1 | 1.52 ± 0.043 |
| SVIQLCGGINDSIPYPQ [ECM29] | 3.16 ± 0.17 | 2.59 ± 0.23 | 2.57 ± 0.13 | 2.88 ± 0.078 |
| SVHLIECYKQLFLTAPD [YCS4] | 1.52 ± 0.24 | – | – | – |
| RNNSKSVLLKKLGSVRV [SRP72] | – | 1.33 ± 0.11 | – | 1.69 ± 0.087 |
| IIAVKGSGSRLNRLPAA [RPL23A] | 1.42 ± 0.051 | 1.17 ± 0.049 | 1.23 ± 0.099 | 1.42 ± 0.049 |
| KIFVETKFSKLIGRPPL [FAS1] | 1.97 ± 0.29 | 2.54 ± 0.093 | 2.35 ± 0.11 | 1.79 ± 0.059 |
| YSSILGNSFNKSSNDTI [YCG1] | 2.5 ± 0.048 | 2.77 ± 0.042 | 2.62 ± 0.037 | 2.81 ± 0.049 |
| TLSFNFSQKANKTKAVD [YOR098C/NUP1] | 2.03 ± 0.085 | 1.55 ± 0.059 | 1.84 ± 0.1 | 1.71 ± 0.057 |
| DVKLLHSQFMKDLKDDS [YJL039C/NUP192] | 2.72 ± 0.075 | 2.85 ± 0.091 | 2.98 ± 0.077 | 2.72 ± 0.055 |
| KKEEEEQLSEEDAKLKT [RPN1] | 3.19 ± 0.16 | 3.24 ± 0.07 | 3.34 ± 0.11 | 3.06 ± 0.14 |
